According to paper PMC6554060 (Journal of molecular biology, 2019):

Target: His6-tagged WT-αSyn (human, UniProt P37840 1-140)
Experiment: BLI

Kd: 15.3 µM
B1: E234G/H363A-HYPE (enzyme)
chain: GKLEARAALNQALEMKRQGKREKAQKLFMHALKMDPDFVDALTEFGIFSEEDKDIIQADYLYTRALTISPYHEKALVNRDRTLPLVEEIDQRYFSIIDSKVKKVMSIPKGNSALRRVMEETYYHHIYHTVAIGGNTLTLSEIRHILETRYAVPGKSLEEQNEVIGMHAAMKYINTTLVSRIGSVTISDVLEIHRRVLGYVDPVEAGRFRTTQVLVGHHIPPHPQDVEKQMQEFVQWLNSEEAMNLHPVEFAALAHYKLVYIAPFIDGNGRTSRLLMNLILMQAGYPPITIRKEQRSDYYHVLEAANEGDVRPFIRFIAKCTETTLDTLLFATTEYSVALPEAQPNHSGFKETLPVKP
